Results reported in patent publication US20130079278A1 (Novo Nordisk, published 2013).
*1 amine or outer side, *2 acyl side, *3 side chain or, on linkers, in order; H or OH if unused. Where no end group is shown, it is not given here. Side-chain parts run from the residue outwards. The star is where a group is joined. X1 = 4‑(16-(1H-tetrazol-5-yl)hexadecanoylsulfamoyl)butanoyl, O=C(CCCCCCCCCCCCCCCc1nnn[nH]1)NS(=O)(=O)CCCC(=O)*; C18 diacid = O=C(O)CCCCCCCCCCCCCCCCC(=O)*; C16 diacid = O=C(O)CCCCCCCCCCCCCCC(=O)*; γGlu = O=C(O)[C@H](CCC(=O)[*:2])N[*:1]; AEEA = NCCOCCOCC(=O)O

B1: N^ε24-[(4S)-4-carboxy-4-[[(4S)-4-carboxy-4-[[(4S)-4-carboxy-4-[[(4S)-4-carboxy-4-(17-carboxyheptadecanoylamino)butanoyl]amino]butanoyl]amino]butanoyl]amino]buta … (peptide)
peptide: HSQGTFTSDYSKYLDVRRAQDFVK([γGlu-γGlu-γGlu-γGlu-C18 diacid])WLLST-NH2
modifications: N-terminus assumed
SMILES: CC(C)C[C@H](NC(=O)[C@H](Cc1c[nH]c2ccccc12)NC(=O)[C@H](CCCCNC(=O)CC[C@H](NC(=O)CC[C@H](NC(=O)CC[C@H](NC(=O)CC[C@H](NC(=O)CCCCCCCCCCCCCCCCC(=O)O)C(=O)O)C(=O)O)C(=O)O)C(=O)O)NC(=O)[C@@H](NC(=O)[C@H](Cc1ccccc1)NC(=O)[C@H](CC(=O)O)NC(=O)[C@H](CCC(N)=O)NC(=O)[C@H](C)NC(=O)[C@H](CCCNC(=N)N)NC(=O)[C@H](CCCNC(=N)N)NC(=O)[C@@H](NC(=O)[C@H](CC(=O)O)NC(=O)[C@H](CC(C)C)NC(=O)[C@H](Cc1ccc(O)cc1)NC(=O)[C@H](CCCCN)NC(=O)[C@H](CO)NC(=O)[C@H](Cc1ccc(O)cc1)NC(=O)[C@H](CC(=O)O)NC(=O)[C@H](CO)NC(=O)[C@@H](NC(=O)[C@H](Cc1ccccc1)NC(=O)[C@@H](NC(=O)CNC(=O)[C@H](CCC(N)=O)NC(=O)[C@H](CO)NC(=O)[C@@H](N)Cc1c[nH]cn1)[C@@H](C)O)[C@@H](C)O)C(C)C)C(C)C)C(=O)N[C@@H](CC(C)C)C(=O)N[C@@H](CO)C(=O)N[C@H](C(N)=O)[C@@H](C)O
B2: N^ε24-[(4S)-4-carboxy-4-[[(4S)-4-carboxy-4-[[(4S)-4-carboxy-4-[[(4S)-4-carboxy-4-(17-carboxyheptadecanoylamino)butanoyl]amino]butanoyl]amino]butanoyl]amino]buta … (peptide)
peptide: HSQGTFTSDYSKYLDLRRAQDFVK([γGlu-γGlu-γGlu-γGlu-C18 diacid])WLLST-NH2
modifications: N-terminus assumed
SMILES: CC(C)C[C@H](NC(=O)[C@H](CC(=O)O)NC(=O)[C@H](CC(C)C)NC(=O)[C@H](Cc1ccc(O)cc1)NC(=O)[C@H](CCCCN)NC(=O)[C@H](CO)NC(=O)[C@H](Cc1ccc(O)cc1)NC(=O)[C@H](CC(=O)O)NC(=O)[C@H](CO)NC(=O)[C@@H](NC(=O)[C@H](Cc1ccccc1)NC(=O)[C@@H](NC(=O)CNC(=O)[C@H](CCC(N)=O)NC(=O)[C@H](CO)NC(=O)[C@@H](N)Cc1c[nH]cn1)[C@@H](C)O)[C@@H](C)O)C(=O)N[C@@H](CCCNC(=N)N)C(=O)N[C@@H](CCCNC(=N)N)C(=O)N[C@@H](C)C(=O)N[C@@H](CCC(N)=O)C(=O)N[C@@H](CC(=O)O)C(=O)N[C@@H](Cc1ccccc1)C(=O)N[C@H](C(=O)N[C@@H](CCCCNC(=O)CC[C@H](NC(=O)CC[C@H](NC(=O)CC[C@H](NC(=O)CC[C@H](NC(=O)CCCCCCCCCCCCCCCCC(=O)O)C(=O)O)C(=O)O)C(=O)O)C(=O)O)C(=O)N[C@@H](Cc1c[nH]c2ccccc12)C(=O)N[C@@H](CC(C)C)C(=O)N[C@@H](CC(C)C)C(=O)N[C@@H](CO)C(=O)N[C@H](C(N)=O)[C@@H](C)O)C(C)C

The binders below were run against glucagon receptor (human, UniProt P47871 26-477) (assay: cell-based or functional assay).
Sequence of glucagon receptor (P47871 26-477): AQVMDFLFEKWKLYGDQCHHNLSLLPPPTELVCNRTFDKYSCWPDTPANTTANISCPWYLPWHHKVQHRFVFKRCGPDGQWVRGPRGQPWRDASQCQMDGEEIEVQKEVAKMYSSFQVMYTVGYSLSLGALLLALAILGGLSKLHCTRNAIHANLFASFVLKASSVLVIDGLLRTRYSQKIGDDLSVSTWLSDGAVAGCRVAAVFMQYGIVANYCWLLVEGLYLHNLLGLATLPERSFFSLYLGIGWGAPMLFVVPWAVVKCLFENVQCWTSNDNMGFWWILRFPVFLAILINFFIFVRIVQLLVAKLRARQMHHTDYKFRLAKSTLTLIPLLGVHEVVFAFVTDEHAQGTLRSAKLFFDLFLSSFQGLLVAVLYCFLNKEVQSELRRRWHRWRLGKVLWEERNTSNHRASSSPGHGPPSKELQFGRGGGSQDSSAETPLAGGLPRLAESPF

Row | Assay (I) Glucagon [EC50] | Binder
1 | 0.066 nM | HSQGTFTSDYSRYLDARRAQDFVK([γGlu-γGlu-γGlu-C18 diacid])WLLST
2 | 0.081 nM | HSQGTFTSDYSKYLDIRRAQDFVK([γGlu-γGlu-AEEA-AEEA-γGlu-C18 diacid])WLLNT
3 | 0.134 nM | HSQGTFTSDYSKYLDVRRAQDFVK([γGlu-γGlu-γGlu-γGlu-C18 diacid])WLLST
4 | 0.027 nM | HSQGTFTSDYSRYLDLRRAQDFVK([γGlu-γGlu-γGlu-C16 diacid])WLLST
5 | 0.268 nM | B1
6 | 0.14 nM | HSQGTFTSDYSRYLESRRAQDFVK([γGlu-γGlu-AEEA-AEEA-γGlu-C16 diacid])WLLST
7 | 0.072 nM | HSQGTFTSDYSRYLESRRAQEFVK([γGlu-γGlu-AEEA-AEEA-γGlu-C16 diacid])WLLST
8 | 0.036 nM | HSHGTFTSDYSKYLETRRAQDFVK([γGlu-γGlu-AEEA-AEEA-γGlu-C18 diacid])WLLNT
9 | 0.362 nM | HSQGTFTSDYSKYLESRRAQDFVK([γGlu-γGlu-AEEA-γGlu-X1])WLLST
10 | 0.016 nM | HSQGTFTSDYSKYLDARRAQDFVK([γGlu-γGlu-AEEA-AEEA-γGlu-C16 diacid])WLLST
11 | 0.812 nM | B2
12 | 0.025 nM | HSQGTFTSDYSRYLDTRRAQDFVK([γGlu-γGlu-AEEA-AEEA-γGlu-C16 diacid])WLLST
13 | 0.039 nM | HSQGTFTSDYSKYLDLRRAQDFVK([γGlu-γGlu-AEEA-AEEA-γGlu-C16 diacid])WLLST
14 | 0.395 nM | HSQGTFTSDYSKYLESRRAQDFVK([γGlu-γGlu-AEEA-X1])WLLST
15 | 0.106 nM | HSQGTFTSDYSRYLDARRAQDFVK([γGlu-γGlu-γGlu-γGlu-C16 diacid])WLLST
